Test results: patent publication US5604098

Molecular target: T1, CviJ I restriction endonuclease (Chlorella virus IL-3A (infected Chlorella NC64A)) (UniProt P52283)
T1 sequence: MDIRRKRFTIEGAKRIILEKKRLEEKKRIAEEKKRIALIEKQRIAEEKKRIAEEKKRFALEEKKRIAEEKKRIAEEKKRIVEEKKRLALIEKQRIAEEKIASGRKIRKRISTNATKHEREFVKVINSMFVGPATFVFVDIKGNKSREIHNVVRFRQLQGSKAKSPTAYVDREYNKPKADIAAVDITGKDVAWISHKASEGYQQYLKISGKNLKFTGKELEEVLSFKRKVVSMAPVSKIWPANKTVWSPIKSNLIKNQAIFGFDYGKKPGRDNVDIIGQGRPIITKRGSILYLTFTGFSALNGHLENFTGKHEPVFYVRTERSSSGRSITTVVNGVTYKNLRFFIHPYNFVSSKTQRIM
Assay: cleavage_in_vitro
Conditions: for activity (% of cleaved junctions): CviJ I* complete digest; for activity (% of cloned junctions): CviJ I** partial digest

Sequence: AGCA (double strand) [AGCA site]
- activity (% of cleaved junctions) (13 cleaved, 5 not cleaved): 6.5
- activity (% of cloned junctions): 1.3

Sequence: AGCC (double strand) [AGCC site]
- activity (% of cleaved junctions) (23 cleaved, 1 not cleaved): 11.5
- activity (% of cloned junctions) (Mg, ATP, DTT, 20% DMSO, low salt): 17.1

Sequence: AGCG (double strand) [AGCG site]
- activity (% of cleaved junctions) (12 cleaved, 11 not cleaved): 6
- activity (% of cloned junctions): 0

Sequence: AGCT (double strand) [AGCT site]
- activity (% of cleaved junctions) (35 cleaved, 0 not cleaved): 17.5
- activity (% of cloned junctions): 32.9

Sequence: CGCA (double strand) [CGCA site]
- activity (% of cleaved junctions) (12 not cleaved): 0
- activity (% of cloned junctions): 0

Sequence: CGCC (double strand) [CGCC site]
- activity (% of cleaved junctions) (11 cleaved, 4 not cleaved): 5.5
- activity (% of cloned junctions): 0

Sequence: CGCG (double strand) [CGCG site]
- activity (% of cleaved junctions) (27 not cleaved): 0
- activity (% of cloned junctions): 0

Sequence: CGCT (double strand) [CGCT site]
- activity (% of cleaved junctions) (17 cleaved, 7 not cleaved): 8.5
- activity (% of cloned junctions): 2.6

Sequence: GGCA (double strand) [GGCA site]
- activity (% of cleaved junctions) (11 cleaved, 3 not cleaved): 5.5
- activity (% of cloned junctions): 0

Sequence: GGCC (double strand) [GGCC site]
- activity (% of cleaved junctions) (24 cleaved, 1 not cleaved): 12
- activity (% of cloned junctions): 21.1

Sequence: GGCG (double strand) [GGCG site]
- activity (% of cleaved junctions) (18 cleaved, 8 not cleaved): 9
- activity (% of cloned junctions): 5.2

Sequence: GGCT (double strand) [GGCT site]
- activity (% of cleaved junctions) (13 cleaved, 0 not cleaved): 6.5
- activity (% of cloned junctions): 15.8

Sequence: TGCA (double strand) [TGCA site]
- activity (% of cleaved junctions) (19 not cleaved): 0
- activity (% of cloned junctions): 0

Sequence: TGCC (double strand) [TGCC site]
- activity (% of cleaved junctions) (13 cleaved, 10 not cleaved): 6.5
- activity (% of cloned junctions): 2.6

Sequence: TGCG (double strand) [TGCG site]
- activity (% of cleaved junctions) (3 not cleaved): 0
- activity (% of cloned junctions): 0

Sequence: TGCT (double strand) [TGCT site]
- activity (% of cleaved junctions) (10 cleaved, 5 not cleaved): 5
- activity (% of cloned junctions): 1.3
